B1: Wildtype NiV G ectodomain (Nipah virus attachment glycoprotein G, residues 71-602, N-terminal His6-tag) (domain or fragment)
chain: QNYTRSTDNQAVIKDALQGIQQQIKGLADKIGTEIGPKVSLIDTSSTITIPANIGLLGSKISQSTASINENVNEKCKFTLPPLKIHECNISCPNPLPFREYRPQTEGVSNLVGLPNNICLQKTSNQILKPKLISYTLPVVGQSGTCITDPLLAMDEGYFAYSHLERIGSCSRGVSKQRIIGVGEVLDRGDEVPSLFMTNVWTPPNPNTVYHCSAVYNNEFYYVLCAVSTVGDPILNSTYWSGSLMMTRLAVKPKSNGGGYNQHQLALRSIEKGRYDKVMPYGPSGIKQGDTLYFPAVGFLVRTEFKYNDSNCPITKCQYSKPENCRLSMGIRPNSHYILRSGLLKYNLSDGENPKVVFIEISDQRLSIGSPSKIYDSLGQPVFYQASFSWDTMIKFGDVLTVNPLVVNWRNNTVISRPGQSQCPRFNTCPEICWEGVYNDAFLIDRINWISAGVFLDSNQTAENPVFTVFKDNEILYRAQLASEDTNAQKTITNCFLLKNKIWCISLVEIYDTGDNVIRPKLFAVKIPEQCT
B2: ephrinB2-Fc (human ephrinB2 residues 1-229, Factor XA cleavage site, human IgG1 residues 100-330) (Fc fusion)
chain: IVLEPIYWNSSNSKFLPGQGLVLYPQIGDKLDIICPKVDSKTVGQYEYYKVYMVDKDQADRCTIKKENTPLLNCAKPDQDIKFTIKFQEFSPNLWGLEFQKNKDYYIISTSNGSLEGLDNQEGGVCQTRAMKILMKVGQDASSAGSTRNKDPTRRPELEAGTNGRSSTTSPFVKPNPGSSTDGNSAGHSGNNILGSEVALFA
notes: also called dimeric ephrinB2; dimeric receptor
B3: ephrinB2-229 (S-tagged monomeric ephrinB2 ectodomain, residues 25-229) (domain or fragment, human, UniProt P52799 25-229, looked up)
chain: SKSIVLEPIYWNSSNSKFLPGQGLVLYPQIGDKLDIICPKVDSKTVGQYEYYKVYMVDKDQADRCTIKKENTPLLNCAKPDQDIKFTIKFQEFSPNLWGLEFQKNKDYYIISTSNGSLEGLDNQEGGVCQTRAMKILMKVGQDASSAGSTRNKDPTRRPELEAGTNGRSSTTSPFVKPNPGSSTDGNSAGHSGNNILGSEVALFA
B4: Stag-ephrinB2-167 (S-tagged monomeric ephrinB2 globular domain, residues 25-167) (domain or fragment, human, UniProt P52799 25-167, looked up)
chain: SKSIVLEPIYWNSSNSKFLPGQGLVLYPQIGDKLDIICPKVDSKTVGQYEYYKVYMVDKDQADRCTIKKENTPLLNCAKPDQDIKFTIKFQEFSPNLWGLEFQKNKDYYIISTSNGSLEGLDNQEGGVCQTRAMKILMKVGQD
B5: ephrinB2-167 from His6-ephrinB2-167 with the His6-tag removed by enterokinase cleavage (domain or fragment, human, UniProt P52799 25-167, looked up)
chain: B4 chain
notes: also called monomeric ephrinB2

Assays:
[1] = target: the molecule itself; assay: negative stain electron microscopy
[2] = target: T1, SHG-labeled wildtype NiV G ectodomain (Nipah virus, UniProt Q9IH62 71-602); assay: second harmonic generation (SHG); conditions: both partners purified
T1 sequence: B1 chain

[3] = target: B1; assay: ELISA; conditions: both partners purified

## B1
[1]
  stoichiometry N: 4

## B2
[2]
  ΔSHG: -12.9%
[3]
  Kd: 0.088 nM

## B3
[3]
  Kd: 33.2 nM

## B4
[3]
  Kd: 11.9 nM

## B5
[2]
  ΔSHG: -27.9%

— publication PMC5626764 (Nature Communications, 2017)
